# Results published in patent publication US20240148885A1, “TARGETED BIFUNCTIONAL DEGRADERS” (YALE UNIVERSITY, priority 2021, published 2024).
# Like-named read-outs stand apart in the source and are kept apart here.
# Assays:
# [1] = target: streptavidin (Streptomyces avidinii, UniProt P22629); experiment: ELISA: biotinylated Angiopep-2 binding to streptavidin (FIG. 7)
# [2] = system: astrocytes; experiment: Cellular assay: internalization of streptavidin in astrocytes (FIG. 9); format: cell-based; conditions: noncovalently bound cargo
# [3] = system: murine brain endothelial cells; conditions: noncovalently bound streptavidin AF647 cargo, FIG. 8, FIG. 9
# [4] = target: streptavidin AF647 (Streptomyces avidinii, UniProt P22629); experiment: Saturable delivery (uptake) of streptavidin AF647 (FIG. 6); format: cell-based; conditions: increasing concentration of bifunctional molecule, cells not given
# streptavidin AF647, sequence (P22629 25-183): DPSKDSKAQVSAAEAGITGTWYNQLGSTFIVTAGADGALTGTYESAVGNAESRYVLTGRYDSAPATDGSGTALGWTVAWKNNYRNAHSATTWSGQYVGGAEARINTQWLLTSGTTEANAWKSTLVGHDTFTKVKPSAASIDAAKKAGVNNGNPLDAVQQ
# [5] = target: streptavidin AF488 (Streptomyces avidinii, UniProt P22629); experiment: Degradation of streptavidin AF488 (FIG. 12); format: cell-based
# streptavidin AF488, sequence (P22629 25-183): as above
# Excerpt: Some studies have been done on other bifunctional molecules comprising an LRP1 binding motif depicted in FIG. 2 and a biotin Target binding motif, wherein these bifunctional molecules also noncovalently bind streptavidin (FIG. 11).
# streptavidin, sequence (P22629 25-183, species assumed): as the sequence (P22629 25-183) above
Substance,binding to streptavidin (ELISA) [1],internalization of streptavidin into astrocytes [2],delivery / internalization of streptavidin into brain endothelial cells [3],delivery / internalization of streptavidin into brain endothelial cells ([3]; listed as Angiopep-2-Biotin),level of streptavidin AF647 uptake [4],degradation of target protein streptavidin AF488 [5]
biotinylated Angiopep-2,binds streptavidin,mediated internalization of target protein Streptavidin,delivers streptavidin AF647 to murine brain endothelial cells,mediated internalization of target protein Streptavidin,saturable delivery of streptavidin AF647,
Ac.Ac.Biotin Angiopep-2: Angiopep-2 modified via acetylation and bonded to a biotin Target binding motif,,,,,,mediated degradation of streptavidin AF488
